These results are taken from EP2168984B1 (Abbott GmbH & Co. KG, dated 2012).

Test [1] concerns the target T1, recombinant human IL-12 (human, UniProt P29459 23-219; P29460 23-328).
T1 sequence (looked up) 1: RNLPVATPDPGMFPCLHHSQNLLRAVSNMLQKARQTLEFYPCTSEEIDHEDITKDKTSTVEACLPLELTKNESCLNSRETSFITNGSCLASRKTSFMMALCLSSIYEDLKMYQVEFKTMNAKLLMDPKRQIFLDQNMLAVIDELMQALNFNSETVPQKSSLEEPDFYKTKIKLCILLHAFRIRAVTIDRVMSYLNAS
T1 sequence (looked up) 2: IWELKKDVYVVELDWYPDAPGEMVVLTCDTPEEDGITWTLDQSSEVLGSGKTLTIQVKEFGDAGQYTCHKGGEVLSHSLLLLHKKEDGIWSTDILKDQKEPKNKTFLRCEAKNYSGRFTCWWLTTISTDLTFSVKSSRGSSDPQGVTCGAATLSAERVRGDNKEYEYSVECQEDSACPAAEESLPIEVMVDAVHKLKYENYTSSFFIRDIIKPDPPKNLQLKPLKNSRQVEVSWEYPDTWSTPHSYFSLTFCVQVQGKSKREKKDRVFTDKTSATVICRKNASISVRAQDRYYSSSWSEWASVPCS
Nature of the test: cell-based or functional assay.

A further test deals with T2, Cyno IL-12 (cynomolgus monkey).
T2 chain 1: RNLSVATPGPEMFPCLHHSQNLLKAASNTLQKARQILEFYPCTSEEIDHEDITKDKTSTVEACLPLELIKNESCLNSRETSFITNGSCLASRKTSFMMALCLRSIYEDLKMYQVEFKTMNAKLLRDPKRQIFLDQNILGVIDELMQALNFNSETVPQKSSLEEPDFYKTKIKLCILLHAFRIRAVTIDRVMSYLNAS
T2 chain 2: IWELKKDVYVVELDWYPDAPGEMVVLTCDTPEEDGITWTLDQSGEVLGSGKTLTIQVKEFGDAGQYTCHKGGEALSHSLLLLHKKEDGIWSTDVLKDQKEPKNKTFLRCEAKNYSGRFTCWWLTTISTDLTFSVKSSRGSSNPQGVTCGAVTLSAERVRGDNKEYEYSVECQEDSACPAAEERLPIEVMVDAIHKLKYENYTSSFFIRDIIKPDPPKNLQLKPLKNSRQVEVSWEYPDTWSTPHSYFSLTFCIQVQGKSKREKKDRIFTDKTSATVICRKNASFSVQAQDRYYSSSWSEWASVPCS
Nature of the test: cell-based or functional assay.

For test [2], the target named is T1, recombinant human IL-12. Nature of the test: cell-based or functional assay. This is another data set of the same source.
In test [3] the target is T3, recombinant human IL-12 (human, UniProt P29459 23-219; P29460 23-328).
T3 construct: disulfide-linked p35/p40 heterodimer; also called hIL-12; rhIL-12
T3 sequence (looked up) 1: T1 sequence (looked up) 1
T3 sequence (looked up) 2: T1 sequence (looked up) 2
Nature of the test: BIAcore SPR, immobilised IL-12. For orientation: In SPR one partner is held on a chip, and binding of the other changes the refractive index at the surface.

A further test concerns the target T4, Rhesus IL-12 (rhesus monkey, UniProt P48091 23-219; P48095 23-328).
T4 sequence (looked up) 1: T2 chain 1
T4 sequence (looked up) 2: T2 chain 2
Nature of the test: cell-based or functional assay.

The target of a further test is T5, Baboon IL-12 (baboon).
T5 chain 1: T2 chain 1 with F82V, N85K, K110Q, M111I, R125M, K172R
T5 chain 2: T2 chain 2 with V230A
Nature of the test: cell-based or functional assay.

The target of another test is T6, Dog IL-12 (dog, UniProt Q28267 26-222; Q28268 23-329).
T6 sequence (looked up) 1: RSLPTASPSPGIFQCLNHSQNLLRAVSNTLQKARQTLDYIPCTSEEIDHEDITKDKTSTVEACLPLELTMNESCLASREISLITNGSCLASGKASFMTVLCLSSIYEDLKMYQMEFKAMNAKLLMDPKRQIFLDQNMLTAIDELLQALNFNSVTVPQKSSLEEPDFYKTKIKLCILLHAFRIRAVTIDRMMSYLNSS
T6 sequence (looked up) 2: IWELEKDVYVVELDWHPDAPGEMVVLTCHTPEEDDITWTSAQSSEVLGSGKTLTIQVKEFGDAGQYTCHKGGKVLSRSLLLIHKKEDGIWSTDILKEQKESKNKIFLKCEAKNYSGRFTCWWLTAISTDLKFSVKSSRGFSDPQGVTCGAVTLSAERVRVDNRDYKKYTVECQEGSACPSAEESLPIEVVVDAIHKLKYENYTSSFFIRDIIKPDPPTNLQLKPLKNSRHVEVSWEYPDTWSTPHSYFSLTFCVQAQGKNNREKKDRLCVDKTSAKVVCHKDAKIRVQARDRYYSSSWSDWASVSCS
Nature of the test: cell-based or functional assay.

Test [4] concerns the target T1, recombinant human IL-12. Nature of the test: cell-based or functional assay. The source holds these as a separate data set.

Substitutions are numbered along the chain they refer to. Numbers in names are those of the source.

B1: Y61 IgG (antibody, V domains shown)
VH: QVQLVQSGGGVVQPGRSLRLSCAASGFTFSSYGMHWVRQAPGKGLEWVAFIRYDGSNKYYADSVKGRFTISRDNSKNTLYLQMKSLRAEDTAVYYCKTHGSHDNWGQGTMVTVSS
VL: SYVLTQPPSVSGTPGQRVTISCSGGRSWIGSNTVKWYQQLPGTAPKLLIYGNDQRPSGVPDRFSGSKSGTSASLAITGVQAEDEADYYCQSYDRGTHPALLFGTGTKVTVLG
Consider B1, for which the “IC50 (M), species cross reactivity bioassay” value was found to be 1.7e-10 M with recombinant human IL-12 [1] and 2.2e-10 M with Cyno IL-12.

B2: Y139 (scFv, V domains shown)
VH: B1 VH
VL: SYVLTQPPSVSGTPGQRVTISCSGGRSNIGSNTVKWYQQLPGTAPKLLIYGNDQRPSGVPDRFSGSKSGTSASLAITGVQAEDEADYYCQSYDRGSHPALTFGTGTKVTVL
In the case of B2, in the test with recombinant human IL-12 [2], the “IFN gamma IC50” value is 0.16 nM.

B3: 177-H10 (scFv, V domains shown)
VH: B1 VH
VL: B2 VL with S96T, A99T, L100M, T101Y
In the case of B3, the koff – broadly, the rate constant with which the complex falls apart – with recombinant human IL-12 [3] was 0.344 s⁻¹.

B4: J695 (Y61-L94Y- L50Y IgG*) (antibody, V domains shown)
VH: B1 VH with Q6E, K84N
VL: B1 VL with S1Q, Y2S, T13A, G25S, W28N, G51Y, V79L, G95Y
On to B4, for which the “IC50 (M), species cross reactivity bioassay” value with recombinant human IL-12 [1] was found to be 5e-12 M; with Cyno IL-12, 1e-11 M; with Rhesus IL-12, 1e-11 M; with Baboon IL-12, 1.5e-11 M; in the test with Dog IL-12, 3.5e-10 M. Further, the “PHA blast Assay IC50” value with recombinant human IL-12 [4] was 0.0058 nM.
